Reference: paper PMC8834548, “Epiregulin as an Alternative Ligand for Leptin Receptor Alleviates Glucose Intolerance without Change in Obesity” (Cells, 2022)

Key:
[1] = target: mouse recombinant leptin receptor (LepR) protein (mouse) (UniProt P48356); test: quartz crystal microbalance with dissipation (QCM-D); LepR (1.6 pM in PBS) laid as a monolayer on a gold quartz sensor, then mouse leptin or mouse EREG (1.6 fM) added; PBS pH 7.1-7.5, 25 C, flow 50 uL/min; frequency, dissipation and modelled film thickness
[2] = target: leptin receptor (LepR), endogenous in mouse adipose tissue (mouse (endogenous in Lep^ob adipose tissue)) (UniProt P48356)
[3] = target: T1, mouse recombinant leptin receptor (LepR) protein (mouse, UniProt P48356 22-839); test: quartz crystal microbalance with dissipation (QCM-D); LepR (1.6 pM in PBS) laid as a monolayer on a gold quartz sensor, then mouse leptin or mouse EREG (1.6 fM) added; PBS pH 7.1-7.5, 25 C, flow 50 uL/min; frequency, dissipation and modelled film thickness; settings: both partners purified
T1 construct: leptin receptor, mouse, recombinant, R&D systems 497-LR/CF; also called recombinant LepR; source: bought: R&D systems, 497-LR/CF
T1 sequence (looked up): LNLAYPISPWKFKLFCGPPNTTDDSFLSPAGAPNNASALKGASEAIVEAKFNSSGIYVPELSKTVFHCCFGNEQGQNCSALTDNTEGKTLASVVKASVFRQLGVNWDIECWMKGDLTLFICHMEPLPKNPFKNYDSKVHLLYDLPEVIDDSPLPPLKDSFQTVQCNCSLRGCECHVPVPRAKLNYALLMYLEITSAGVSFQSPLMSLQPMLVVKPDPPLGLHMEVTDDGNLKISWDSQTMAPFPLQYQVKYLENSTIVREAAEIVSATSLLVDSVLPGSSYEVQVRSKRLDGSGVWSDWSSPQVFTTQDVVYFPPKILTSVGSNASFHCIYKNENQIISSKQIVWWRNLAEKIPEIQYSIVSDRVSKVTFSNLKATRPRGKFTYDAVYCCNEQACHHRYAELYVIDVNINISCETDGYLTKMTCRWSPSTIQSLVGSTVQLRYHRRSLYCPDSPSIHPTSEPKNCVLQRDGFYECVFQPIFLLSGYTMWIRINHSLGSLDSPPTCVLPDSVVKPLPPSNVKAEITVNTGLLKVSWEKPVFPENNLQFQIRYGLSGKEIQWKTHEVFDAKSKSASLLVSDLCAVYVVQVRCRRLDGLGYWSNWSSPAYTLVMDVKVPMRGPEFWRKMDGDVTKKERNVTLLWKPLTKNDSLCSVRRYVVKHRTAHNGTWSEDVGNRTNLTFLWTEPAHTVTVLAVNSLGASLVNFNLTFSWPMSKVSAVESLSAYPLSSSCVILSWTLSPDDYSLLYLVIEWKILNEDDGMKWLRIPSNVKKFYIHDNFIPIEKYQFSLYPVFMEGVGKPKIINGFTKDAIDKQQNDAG

## mouse recombinant EREG (ligand)
[1]
  thickness of the LepR film after EREG was added (23 nm before): 20 nm
[2]
  FD-glucose uptake in 3T3-L1 preadipocytes against the concentration of mouse EREG: 26 nM

B1: mouse leptin (ligand, UniProt P41160 22-167, looked up)
chain: VPIQKVQDDTKTLIKTIVTRINDISHTQSVSAKQRVTGLDFIPGLHPILSLSKMDQTLAVYQQVLTSLPSQNVLQIANDLENLRDLLHLLAFSKSCSLPQTSGLQKPESLDGVLEASLYSTEVVALSRLQGSLQDILQQLDVSPEC
notes: leptin, mouse, Crystal Chem 90030-B; source: bought: Crystal Chem, 90030-B
[3]
  binding result: binds
